{"source": "patent US20260209265A1", "about": "(NAVIGO PROTEINS, published 2026)", "binders": {"B1": {"name": "224777 (SEQ ID NO: 7) (designed binder)", "chain": "AQFDKIAQIAFYAILHLPNLTEEQRHAFIQSLRDDPSVSKEILAEAKKLNDAQAPKIAAQFDKIAQIAFYAILHLPNLTEEQRHAFIQSLRDDPSVSKEILAEAKKLNDAQAPKIAAQFDKIAQIAFYAILHLPNLTEEQRHAFIQSLRDDPSVSKEILAEAKKLNDAQAPKIAAQFDKIAQIAFYAILHLPNLTEEQRHAFIQSLRDDPSVSKEILAEAKKLNDAQAPKIAAQFDKIAQIAFYAILHLPNLTEEQRHAFIQSLRDDPSVSKEILAEAKKLNDAQAPK", "notes": "also called 224777 pentamer"}}, "key": {"Natalizumab (IgG4)": {"target": "Natalizumab (IgG4)", "sequence (VH, as listed by the source, chain 1 of 2)": "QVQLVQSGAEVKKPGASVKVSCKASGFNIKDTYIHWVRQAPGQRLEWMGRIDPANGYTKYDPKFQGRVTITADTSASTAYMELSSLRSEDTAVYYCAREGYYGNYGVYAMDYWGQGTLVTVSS", "sequence (VL, as listed by the source, chain 2 of 2)": "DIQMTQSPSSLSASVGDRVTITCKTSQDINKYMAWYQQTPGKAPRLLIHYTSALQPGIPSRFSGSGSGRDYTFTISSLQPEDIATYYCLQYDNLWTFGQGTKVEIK", "assay": "SPR (Bruker SPR-32, 25 C, Langmuir 1:1 model)", "from_the_text": "(§1) A sensor chip (Bruker) was equilibrated with surface plasmon resonance (SPR) running buffer. Surface-exposed carboxylic groups were activated by passing a mixture of EDC and NHS to yield reactive ester groups. 700-1500 RU on-ligand were immobilized on a flow cell, off-ligand was immobilized on another flow cell. Injection of ethanolamine after ligand immobilization removes non-covalently bound Ig binding protein. Upon ligand binding, protein analyte was accumulated on the surface increasing the refractive index. This change in the refractive index was measured in real time and plotted as response or resonance units (RU) versus time. The analytes were applied to the chip in serial dilutions with a suitable flow rate (pl/min). After each run, the chip surface was regenerated with regeneration buffer and equilibrated with running buffer. The control samples were applied to the matrix. Regeneration and re-equilibration were performed as previously mentioned. Binding studies were carried out by the use of the Bruker SPR-32 at 25° C.; data evaluation was operated via the Bruker evaluation software, provided by the manufacturer, by the use of the Langmuir 1:1 model (RI=0)."}, "Panitumab (IgG2)": {"target": "T1, Panitumab (IgG2)", "T1 construct": "also called hIgG2", "assay": "SPR (Bruker SPR-32, 25 C, Langmuir 1:1 model)", "from_the_text": "as §1"}, "Octagam (IgG sample) [1]": {"target": "T2, Octagam (IgG sample)", "T2 construct": "also called hIgG", "assay": "step pH elution with 0.1 M acetic acid of hIgG (Octagam) bound to the immobilized ligand; percent of the bound IgG released at pH 4.0"}, "Octagam (IgG sample) [2]": {"target": "T2, Octagam (IgG sample)", "assay": "dynamic binding capacity at 10% breakthrough; ligand coupled to agarose beads, Octagam 2.2 mg/ml loaded"}, "Octagam (IgG sample) [3]": {"target": "T2, Octagam (IgG sample)", "assay": "step pH elution with 0.1 M acetic acid of hIgG (Octagam) bound to the immobilized ligand; percent of the bound IgG released at pH 3.7"}, "Octagam (IgG sample) [4]": {"target": "T2, Octagam (IgG sample)", "assay": "DBC10 of the immobilized ligand after 50 h in 1 M NaOH, in % of the DBC10 at 0 h; Octagam loaded, 6 min residence time"}}}
{"binder": "B1", "values": [{"measurement": "Kd", "setting": "Natalizumab (IgG4)", "value": 2, "unit": "nM"}, {"measurement": "Kd", "setting": "Panitumab (IgG2)", "value": 5.8, "unit": "nM"}, {"measurement": "Amount eluted IgG pH 4.0 (%)", "setting": "Octagam (IgG sample) [1]", "value": 100, "unit": "%"}, {"measurement": "DBC10% 6 min residence time", "setting": "Octagam (IgG sample) [2]", "value": 61, "unit": "mg/mL"}, {"measurement": "Amount eluted IgG pH 3.7 (%)", "setting": "Octagam (IgG sample) [3]", "value": 0, "unit": "%"}, {"measurement": "Remaining IgG binding capacity after 50 h, 1 M NaOH (%)", "setting": "Octagam (IgG sample) [4]", "value": 76, "unit": "%"}]}
